Source: FireProtDB (doi:10.1016/j.jmb.2010.09.022)

B1: Profilin, Q58NA1 (parent)
chain: MSDWDPVVKEWLVDTGYCCAGGIANAEDGVVFAAAADDDDGWSKLYKDDHEEDTIGEDGNACGKVSINEASTIKAAVDDGSAPNGVWIGGQKYKVVRPEKGFEYNDCTFDITMCARSKGGAHLIKTPNGSIVIALYDEEKEQDKGNSRTSALAFAEYLHQSGY

Variants of: B1
Conditions: Toxoplasma gondii; pH 7.5; Thermal; CD; HEPES 10mM; KCl 100mM; reversible: yes; structure 3NEC; whole UniProt chain shown

Variant | Tm | change of melting temperature, mutant - wild type (higher = more stable)
D38Q D39G | 51.3 °C | -1.8 °C
K94Q V95F R97N P98I T112A M113T | 62.2 °C | 9.1 °C
